Test results reported in PMC5082570, “Structure and biochemical properties of recombinant human dimethylglycine dehydrogenase and comparison to the disease‐related H109R variant” (The Febs Journal, 2016).
Changes are numbered by the printed parent chain. Numbers in names are those of the source.

Columns and labels:
[1] = target: T1, human dimethylglycine dehydrogenase (hDMGDH) (Homo sapiens, UniProt Q9UI17); experiment: X-ray crystal structure, […] Å; assay type: binding; conditions: covalent; 8alpha-methyl group linked to N3 of His91
T1 construct: gene DMGDH; covalent FAD at His91
T1 sequence (Q9UI17 29-866): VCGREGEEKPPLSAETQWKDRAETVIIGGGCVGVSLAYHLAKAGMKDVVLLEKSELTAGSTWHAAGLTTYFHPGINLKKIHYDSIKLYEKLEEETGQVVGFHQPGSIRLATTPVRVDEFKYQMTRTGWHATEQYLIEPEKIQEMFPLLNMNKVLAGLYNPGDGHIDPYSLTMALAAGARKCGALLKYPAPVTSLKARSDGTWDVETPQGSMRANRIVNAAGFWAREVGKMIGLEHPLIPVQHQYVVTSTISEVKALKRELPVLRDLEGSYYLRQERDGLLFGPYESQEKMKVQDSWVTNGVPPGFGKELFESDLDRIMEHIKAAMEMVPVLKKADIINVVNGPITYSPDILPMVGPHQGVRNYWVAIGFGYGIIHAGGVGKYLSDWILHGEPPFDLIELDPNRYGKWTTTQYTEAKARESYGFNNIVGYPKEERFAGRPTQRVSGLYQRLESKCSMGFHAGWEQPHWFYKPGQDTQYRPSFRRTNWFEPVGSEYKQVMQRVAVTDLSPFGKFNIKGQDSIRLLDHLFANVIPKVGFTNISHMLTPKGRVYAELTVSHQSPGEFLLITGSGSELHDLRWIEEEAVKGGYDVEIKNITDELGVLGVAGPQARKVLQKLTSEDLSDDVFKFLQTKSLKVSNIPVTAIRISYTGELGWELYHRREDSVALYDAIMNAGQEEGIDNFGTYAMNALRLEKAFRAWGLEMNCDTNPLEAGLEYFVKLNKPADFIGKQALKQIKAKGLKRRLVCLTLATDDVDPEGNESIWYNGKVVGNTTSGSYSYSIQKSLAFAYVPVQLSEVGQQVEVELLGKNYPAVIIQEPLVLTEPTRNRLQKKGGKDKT

[2] = target: T1, human dimethylglycine dehydrogenase (hDMGDH); experiment: ferrocenium activity assay against THF concentration; assay type: biochemical; conditions: 1 mM DMG, 0.2 mM ferrocene, 0-75 μM THF, 50 mM HEPES/NaOH, 150 mM NaCl, 0.1 mM EDTA, pH 7.8, 25 °C; physiological methyl acceptor
[3] = target: T1, human dimethylglycine dehydrogenase (hDMGDH); experiment: stopped flow, FAD reduction at […] nm, hyperbolic fit of kobs; assay type: biochemical; conditions: anaerobic, 50 mM HEPES/NaOH, 150 mM NaCl, pH 7.8, 25 °C; pre-steady-state; read-out: K D,DMG
purified protein = substrate: CN(C)CC(=O)O; experiment: purified protein; assay type: biochemical, Homo sapiens; conditions: 0.2 mM ferrocenium hexafluorophosphate as electron acceptor, 50 mM HEPES/NaOH, 150 mM NaCl, 0.1 mM EDTA, pH 7.8, 25 °C
[4] = natural disease variant, partly apoprotein

Cc1cc2nc3c(=O)[nH]c(=O)nc-3n(C[C@H](O)[C@H](O)[C@H](O)COP(=O)(O)OP(=O)(O)OC[C@H]3O[C@@H](n4cnc5c(N)ncnc54)[C@H](O)[C@@H]3O)c2cc1C [FAD, flavin adenine dinucleotide] was tested, and the “X-ray crystal structure, 3.1 Å” value [1] was “The FAD cofactor is covalently attached to the protein through a linkage between N3”.

For Nc1nc2c(c(=O)[nH]1)N[C@@H](CNc1ccc(C(=O)N[C@@H](CCC(=O)O)C(=O)O)cc1)CN2 [THF, tetrahydrofolate], the activity [2] was “the activity of WT decreases as a function of the THF concentration”.

Molecule CN(C)CC(=O)O [DMG, dimethylglycine] has a Kd [3] of 4.9 ± 0.3 mM.

B1: human dimethylglycine dehydrogenase (hDMGDH) (Homo sapiens) (protein)
chain: T1 sequence (Q9UI17 29-866)
notes: covalent FAD at His91
In the case of B1, the Km (purified protein) is reported as 1.4 ± 0.1 mM, the Vmax (purified protein) is reported as 22.1 µM/min and the kcat (purified protein) is reported as 3.55 ± 0.0667 s⁻¹. It also gave a kcat/Km (purified protein) of 2280 ± 267 M⁻¹ s⁻¹.

B2: human dimethylglycine dehydrogenase (hDMGDH) (Homo sapiens; H109R) (protein)
chain: T1 sequence (Q9UI17 29-866) with H81R
notes: covalent FAD at His91
B2 showed a Km (purified protein; [4]) of 32.2 ± 5.6 mM, a Vmax (purified protein; [4]) of 44.1 µM/min and a kcat (purified protein; [4]) of 9.07 ± 0.667 s⁻¹. The kcat/Km (purified protein; [4]) was 183 ± 16.7 M⁻¹ s⁻¹.
